In US20220073618A1 (NANJING GENSCRIPT BIOTECH, published 2022):

Key:
human PD-L1 protein [1] = molecular target: T1, human PD-L1 protein (human, UniProt Q9NZQ7 19-238, limits assumed); assay: ELISA on human PD-L1 protein; antibody after 14 days at 40 C (D14)
Procedure: (§1) The antibody samples were treated separately at 40° C., and then centrifuged to remove the pellet. Then the amount of remaining antibody was evaluated by ELISA. (test after treatment at 40° C. for 7 days (D7) and 14 days (D14) separately; for each test, the untreated sample (D0) stored at −80° C. is used as a control) (FIG. 3)

[2] = molecular target: T2, human PD-L1 on cell surface (human, UniProt Q9NZQ7 19-290); assay: cell-based or functional assay
T2 sequence (Q9NZQ7 19-290): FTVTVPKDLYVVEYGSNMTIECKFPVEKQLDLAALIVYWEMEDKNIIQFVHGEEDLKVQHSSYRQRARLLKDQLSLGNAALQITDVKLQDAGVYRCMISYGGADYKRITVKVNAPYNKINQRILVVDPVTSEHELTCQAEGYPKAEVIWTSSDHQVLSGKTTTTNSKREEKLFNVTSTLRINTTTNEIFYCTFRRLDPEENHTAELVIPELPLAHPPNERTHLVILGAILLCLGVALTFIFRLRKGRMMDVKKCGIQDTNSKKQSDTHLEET

human PD-L1 protein [3] = molecular target: T1, human PD-L1 protein; assay: ELISA on human PD-L1 protein; antibody treated for 20 min (all overlapping curves, including the -80 C control)
Procedure: (§2) The antibody samples were treated for 20 min at various temperature gradients respectively, and then centrifuged to remove the pellet. Then the amount of remaining antibody was evaluated by ELISA. (The temperature gradient includes: room temperature, 30° C., 40° C., 50° C., 60° C., 70° C., […]) (FIG. 4)

human PD-L1 protein [4] = molecular target: T1, human PD-L1 protein; assay: ELISA on human PD-L1 protein; untreated antibody (D0) and antibody after 7 days at 40 C (D7)
Procedure: as §1

human PD-L1 protein [5] = molecular target: T1, human PD-L1 protein; assay: ELISA on the antigen (human PD-L1); antibody untreated (0), after oxidative stress (AAPH, 24 h) or deamidation stress (pH 9.0, 48 h)
human PD-L1 protein [6] = molecular target: T1, human PD-L1 protein; assay: ELISA on human PD-L1 protein; antibody treated for 20 min at 70 C
Procedure: as §2

[7] = molecular target: T3, PD-L1-HIS recombinant protein (human, UniProt Q9NZQ7 19-238, limits assumed); assay: SPR (Biacore 8K), antibody captured on chip, PD-L1-HIS analyte 2.5-80 nM, 1:1 binding model
T3 construct: not shown: His tag
T3 sequence (Q9NZQ7 19-238 limits assumed): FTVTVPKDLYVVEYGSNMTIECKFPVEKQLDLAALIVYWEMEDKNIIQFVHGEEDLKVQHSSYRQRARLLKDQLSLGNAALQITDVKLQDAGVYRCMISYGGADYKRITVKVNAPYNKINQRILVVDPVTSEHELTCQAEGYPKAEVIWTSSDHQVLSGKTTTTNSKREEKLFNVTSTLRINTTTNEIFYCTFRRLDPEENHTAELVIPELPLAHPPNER
Procedure: The chip surface was equilibrated with HBS-EP buffer at a flow rate of 10 μl/min for 5 min, and then a 1:1 mixture of “NHS+EDC” was injected at a flow rate of 10 μl/min for 420 sec to activate the chip. The capture antibody (goat anti-murine IgG) diluted in 10 mM sodium acetate buffer was injected for about 420 sec at a flow rate of 10 μl/min for coupling, and finally ethanolamine was injected for 420 sec at a flow rate of 10 μl/min to block the surface.
Three pre-cycles were performed with the HBS-EP buffer as a sample to balance the chip to stabilize the baseline. The antibody diluted in HBS-EP buffer was injected for 30 sec at a flow rate of 10 μl/min (where the antibody-antigen binding signal was controlled to about 100 RU by adjusting the capture time between 0-5 min), and then the chip was equilibrated with the buffer for 1 min. The low-concentration antigen 2.5 nM PD-L1-HIS was injected at a flow rate of 30 μl/min for 240/300 seconds, to allow the antigen to bind to the antibody, and then the buffer was injected at a flow rate of 30 μl/min for 720/600 seconds for dissociation. 50 mM HCl were injected three times each for 15 s at a flow rate of 100 μl/min for regeneration, to complete one cycle. The antigen concentration was changed (such as 5 nM PD-L1-HIS) to carry out the cycle for measurement at a next gradient concentration until all gradient concentrations (2.5 nM, 5 nM, 10 nM, 20 nM, 40 nM, 80 nM PD-L1-HIS) and the replicate (such as 10 nM PD-L1-HIS) were tested.
The experimental data was double subtracted (minus the background values of the control channel and zero concentration), and fitted to the “1:1 binding” model in the Biacore 8K evaluation software. Biacore 8K was used to determine the affinity of the antibody to the PD-L1-HIS recombinant protein.

biotin-labeled PD-L1-Fc [8] = molecular target: T4, biotin-labeled PD-L1-Fc (human, UniProt Q9NZQ7 19-238, limits assumed, biotin-labeled (sites not given)); assay: flow cytometry: biotin-PD-L1-Fc binding to CHO cells expressing human PD-1 with titrated antibody, fitted curve; enhancement
T4 construct: not shown: Fc part
T4 sequence (Q9NZQ7 19-238 limits assumed): as above
Procedure: (§3) In the FACS test, CHO cells expressing human PD-1 and parent cells as a negative control were washed 3 times with PBS. 2.5×10⁵ detection cells and 50 μl of 3-fold serial dilutions of purified antibody with an initial concentration of 300 nM were added to a 96-well plate. […] Then the cells were washed 3 times with PBS, 100 μl of iFluor647-labeled streptavidin (1 μg/ml) was added, and the cells were incubated at 4° C. for 45 min. Finally, the cells were washed 3 times with PBS, and the signal was read on FACS BD Calibur.

biotin-labeled PD-L1-Fc [9] = molecular target: T4, biotin-labeled PD-L1-Fc; assay: flow cytometry: biotin-PD-L1-Fc binding to CHO cells expressing human PD-1 with titrated antibody; enhancement of PD-L1/PD-1 binding
Procedure: as §3

human PD-L1 protein [10] = molecular target: T1, human PD-L1 protein; assay: ELISA on the antigen (human PD-L1); antibody untreated (0), after oxidative stress (AAPH, 24 h) or deamidation stress (pH 9.0, 48 h); remark: listed apart in the source
biotin-labeled PD-L1-Fc [11] = molecular target: T4, biotin-labeled PD-L1-Fc; assay: ELISA: biotin-PD-L1-Fc binding to coated human PD-1 with titrated antibody, OD 450 nm, fitted curve; enhancement
Procedure: (§4) The ELISA plate (Nunc) was coated with 100 μl/well of 0.5 μg/ml recombinant human PD-1 protein in PBS at 4° C. overnight. The plate was washed with PBS-T (0.05% Tween), and blocked with 200 μl/well of PBST containing 1% BSA at 37° C. for 0.5 hr. Then the blocking buffer was discarded, and 50 μl of 10 μg/ml purified antibody to be tested was added to the first test well. 3-fold serial dilutions were made, and a total of 11 test concentration gradients were given. […] The plate was washed 3 times with PBST, and incubated with 100 μl/well of Streptavidin-HRP (SA-HRP, GenScript) at 37° C. for 10 min. Finally, the plate was washed 5 times with PBST, and then a TMB developing solution (GenScript) was added and incubated at room temperature for 15 min in the dark. The reaction was terminated by adding 50 μl of 1M HCl stop solution (Sigma). The plate was read at 450 nm on a microplate reader.

[12] = molecular target: T2, human PD-L1 on cell surface; assay: flow cytometry on CHO cells expressing human PD-L1, fitted curve
Procedure: (§5) CHO cells expressing human or monkey PD-L1 and parent cells as a negative control were washed 3 times with PBS. 2.5×10⁵ detection cells and 100 μl of 3-fold serial dilutions of purified antibody with an initial concentration of 300 nM were added to a 96-well plate and incubated at 4° C. for 1 hr. […] Finally, the cells were washed 3 times with PBS, and the signal was read on FACS BD Calibur.

biotin-labeled PD-L1-Fc [13] = molecular target: T4, biotin-labeled PD-L1-Fc; assay: ELISA: biotin-PD-L1-Fc binding to coated human PD-1 with titrated antibody; enhancement of PD-L1/PD-1 binding
Procedure: as §4

[14] = molecular target: T5, monkey PD-L1 on cell surface (monkey); assay: flow cytometry on CHO cells expressing monkey PD-L1, fitted curve
T5 construct: whole, on cells; also called monkey PD-L1 cell line; CHO cells overexpressing monkey PD-L1
Procedure: as §5
Moreover, CHO cells overexpressing monkey PD-L1 were used to test the cross-recognition binding to monkey PD-L1 by the antibodies.

human PD-L1 protein [15] = molecular target: T1, human PD-L1 protein; assay: ELISA on human PD-L1 protein; antibody kept at 40 C for 0 (D0), 7 (D7) or 14 (D14) days
Procedure: as §1

human PD-L1 protein [16] = molecular target: T1, human PD-L1 protein; assay: ELISA on human PD-L1 protein; antibody treated for 20 min at room temperature to 70 C and -80 C control (curves not told apart)
Procedure: as §2

human PD-L1 protein [17] = molecular target: T1, human PD-L1 protein; assay: ELISA on the antigen (human PD-L1); antibody untreated (0), after oxidative stress (AAPH, 24 h) or deamidation stress (pH 9.0, 48 h); curves not told apart

T1 sequence (Q9NZQ7 19-238 limits assumed): as above

EC50 (read off the curve) (human PD-L1 protein [1]) [µg/mL]	Bottom (best-fit value) of IL-2 release, mixed lymphocyte reaction [2]	EC50 (µg/ml) of IL-2 release, mixed lymphocyte reaction [2] [µg/mL]	LogEC50 (best-fit value) of IL-2 release, mixed lymphocyte reaction [2]	Span (best-fit value) of IL-2 release, mixed lymphocyte reaction [2]	Top (best-fit value) of IL-2 release, mixed lymphocyte reaction [2]	EC50 (read off the curve) (human PD-L1 protein [4]) [µg/mL]	Kd [7] [nM]	koff [7] [s⁻¹]	kon [7] [M⁻¹ s⁻¹]	EC50 (read off the curve) (human PD-L1 protein [16]) [µg/mL]	Binder	also measured
~0.02	1140	0.0311	-1.51	950	2090	~0.01	0.82	0.000152	185000		AH01950 (antibody, human IgG1, V domains shown, also called mPD-L1Ab-CBM clone AH01950) VH: QVQLQESGPGLVKPSQTLSLTCTVSGYSITSGYTWHWIRQHPGKGLEWIGYIHYSGSTKYNPSLKSRVTISRDTSKNQFSLKLSSVTAADTAVYYCARNSLFASWGQGTLVTVSS VL: DIVLTQSPDSLAVSLGERATINCRASESVDTYGDSFMHWFQQKPGQPPKLLIYRASNLESGVPDRFSGSGSGTDFTLTISSLQAEDVAVYYCQQSNEAPYTFGGGTKLEIK	EC50 (read off the curve) (human PD-L1 protein [3]): ~0.01 µg/mL; EC50 (read off the curve) (human PD-L1 protein [5]): ~0.01 µg/mL; EC50 (read off the curve) (human PD-L1 protein [6]): ~0.03 µg/mL
	1170	0.0295	-1.53	866	2030		0.835	0.000155	186000	~0.01	AH01946 (antibody, human IgG1, V domains shown, also called mPD-L1Ab-CBM clone AH01946) VH: QVQLQESGPGLVKPSQTLSLTCTVSGYSITSGYTWHWIRQHPGKGLEWIGYIHYSGSTKYNPSLKSRVTISRDTSKNQFSLKLSSMTAADTAVYYCARNSLFASWGQGTLVTVSS VL: DIVLTQSPDSLAVSLGERATINCRASESVDTYGDSFMHWFQQKPGQPPKLLIYRASNLESGVPDRFSGSGSGTDFTLTISSVQAEDVAVYYCQQSNEAPYTFGGGTKLEIK	LogEC50 (biotin-labeled PD-L1-Fc [8]): 1.45; EC50 (biotin-labeled PD-L1-Fc [9]): 28.1 nM; EC50 (read off the curve) (human PD-L1 protein [10]): ~0.01 µg/mL; LogEC50 (biotin-labeled PD-L1-Fc [11]): 1.34; EC50 [12]: 0.501 nM; LogEC50 [12]: -0.3; EC50 (biotin-labeled PD-L1-Fc [13]): 0.0219 µg/mL; EC50 [14]: 3.29 nM; LogEC50 [14]: 0.518; EC50 (read off the curve) (human PD-L1 protein [15]): ~0.01 µg/mL
~0.02	1420	0.0406	-1.39	930	2350	~0.01	1.27	0.000274	216000	~0.01	AH01963 (antibody, human IgG1, V domains shown, also called mPD-L1Ab-CBM clone AH01963) VH: QVQLQESGPGLVKPSQTLSLTCTVSGYSITSGYTWHWIRQHPGKGLEWIGYIHYSGSTKYNPSLKSRVTISRDTSKNQFSLKLSSVTAADTAVYYCARNSLFASWGQGTLVTVSS VL: DIVLTQSPDSLAVSLGERATINCRASESVDTYGDSFMHWYQQKPGQPPKLLIYRASNLESGVPDRFSGSGSGTDFTLTISSVQAEDVAVYYCQQSNEAPYTFGGGTKLEIK	EC50 (read off the curve) (human PD-L1 protein [17]): ~0.02 µg/mL
